Source: publication PMC11329725 (Nature Communications, 2024)

T1: His6-HDOB1 (human BRCA2 helical domain and OB fold 1, residues 2479-2807) (human, UniProt P51587 2479-2807)
T1 sequence: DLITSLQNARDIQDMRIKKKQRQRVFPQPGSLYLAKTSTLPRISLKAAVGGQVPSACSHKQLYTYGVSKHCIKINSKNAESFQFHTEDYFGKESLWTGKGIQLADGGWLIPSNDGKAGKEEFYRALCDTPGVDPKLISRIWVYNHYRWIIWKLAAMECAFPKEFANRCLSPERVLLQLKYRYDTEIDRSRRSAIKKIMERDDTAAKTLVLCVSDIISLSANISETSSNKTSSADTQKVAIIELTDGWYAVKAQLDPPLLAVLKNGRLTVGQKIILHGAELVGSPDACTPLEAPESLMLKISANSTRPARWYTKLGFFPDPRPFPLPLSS

T2: OB23 (OB2-OB3 with tower) (human, UniProt P51587 2808-3192)
T2 sequence: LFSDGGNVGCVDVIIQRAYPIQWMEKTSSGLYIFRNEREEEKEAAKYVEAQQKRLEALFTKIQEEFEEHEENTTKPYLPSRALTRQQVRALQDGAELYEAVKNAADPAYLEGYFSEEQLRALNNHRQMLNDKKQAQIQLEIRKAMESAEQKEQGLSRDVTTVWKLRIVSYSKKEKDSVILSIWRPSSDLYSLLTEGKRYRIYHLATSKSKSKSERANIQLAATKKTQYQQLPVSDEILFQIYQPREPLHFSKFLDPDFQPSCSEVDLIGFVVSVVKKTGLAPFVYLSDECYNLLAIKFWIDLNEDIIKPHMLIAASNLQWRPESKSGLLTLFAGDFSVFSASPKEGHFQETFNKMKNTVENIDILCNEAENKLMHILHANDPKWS

T3: BRCA2 DBD (mouse, UniProt P97929 2378-3115)
T3 sequence: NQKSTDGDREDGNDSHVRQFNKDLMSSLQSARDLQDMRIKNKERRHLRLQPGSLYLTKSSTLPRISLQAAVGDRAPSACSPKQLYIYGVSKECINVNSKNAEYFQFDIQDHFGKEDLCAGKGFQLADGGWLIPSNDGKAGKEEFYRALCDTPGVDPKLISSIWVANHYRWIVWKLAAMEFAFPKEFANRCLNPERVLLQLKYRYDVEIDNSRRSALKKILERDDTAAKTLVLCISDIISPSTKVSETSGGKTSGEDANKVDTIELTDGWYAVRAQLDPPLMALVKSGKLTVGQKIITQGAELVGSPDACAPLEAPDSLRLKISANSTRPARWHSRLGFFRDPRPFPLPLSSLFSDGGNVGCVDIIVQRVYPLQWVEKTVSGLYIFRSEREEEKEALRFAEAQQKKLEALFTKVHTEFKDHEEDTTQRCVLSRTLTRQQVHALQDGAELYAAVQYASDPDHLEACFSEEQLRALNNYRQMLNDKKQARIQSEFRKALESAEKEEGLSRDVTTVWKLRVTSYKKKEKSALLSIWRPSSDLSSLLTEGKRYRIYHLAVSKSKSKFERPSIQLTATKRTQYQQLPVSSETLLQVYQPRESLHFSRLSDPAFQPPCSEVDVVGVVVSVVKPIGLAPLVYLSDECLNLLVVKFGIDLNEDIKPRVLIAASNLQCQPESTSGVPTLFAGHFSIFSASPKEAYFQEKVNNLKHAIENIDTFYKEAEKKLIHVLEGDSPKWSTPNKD

B1: GST-DSS1 1-54, co-expressed with His6-HDOB1 in E. coli (domain or fragment)
chain: MSEKKQPVDLGLLEEDDEFEEFPAEDWAGLDEDEDAHVWEDNWDDDNVEDDFSN
B2: Cy5 80-mer ssDNA (oligo 1) (ssDNA)
DNA: TTATATCCTTTACTTTGAATTCTATGTTTAACCTTTTACTTATTTTGTATTAGCCGGACCTTATTTCAATTATGTTCAT
B3: Cy5 80-bp dsDNA (oligo 1/oligo 2) (dsDNA)
DNA 1: B2 DNA
DNA 2: ATGAACATAATTGAAATAAGGATCCGGCTAATACAAAATAAGTAAAAGGTTAAACATAGAATTCAAAGTAAAGGATATAA

Tests used:
[1] = molecular target: T1, His6-HDOB1 (human BRCA2 helical domain …); assay: co-purification
[2] = molecular target: T2, OB23 (OB2-OB3 with tower); assay: EMSA
[3] = molecular target: BRCA2 DBD;DSS1(1-54) (partner of DBD) (mouse;human?, UniProt P97929;P60896 2378-3115;1-54, |del55-70); assay: EMSA
[4] = molecular target: BRCA2 DBD;DSS1 R57Q (partner of DBD) (mouse;human?, UniProt P97929;P60896 2378-3115;1-70, |R57Q); assay: EMSA
[5] = molecular target: BRCA2 DBD;DSS1(1-36) (partner of DBD) (mouse;human?, UniProt P97929;P60896 2378-3115;1-36, |del37-70); assay: EMSA
[6] = molecular target: T3, BRCA2 DBD; assay: EMSA

Binder | binding result [1] | Kd [2] | binding result [3] | binding result [4] | binding result [5] | binding result [6]
MSEKKQPVDLGLLEEDDEFEEFPAEDWAGLDEDEDAHVWEDNWDD (domain or fragment) [GST-DSS1 1-45, co-expressed with His6-HDOB1 in E. coli] | binds |  |  |  |  | 
B1 | binds |  |  |  |  | 
B2 |  | 270 nM | binds | binds | binds | binds
B3 |  |  | binds | binds | binds | binds
